The nanobody polyreactivity screen of Harvey et al. (2022)

experiment: yeast display, Sf9 membrane polyspecificity reagent, FACS + sequencing; frameworks hold sequencing errors
Outline: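 A nanobody's polyreactivity label depends on the gate it was sorted from. Yeast display cells were stained with 10% biotinylated, detergent-solubilized Sf9 membrane reagent for 1 hour at 4 °C, enriched on streptavidin microbeads and sorted by FACS. The low and high (top ~1%) gates were set on anti-HA fluorescence for expression and streptavidin fluorescence for reagent binding.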

Row | Sequence | polyreactivity (PSR sort gate)
1 | QVQLVESGGGLVQAGGSLRLSCAASGSIFAPYAMGRYRQAPGKERELVAAISTTGGTTYYADSVKGRFTISRDNAKNTVYLQMNSLKPEDTAVYYCAADWSESFGKGGDYWGQGTQVTVSS | low polyreactivity
2 | QVQLVESGGGLVQAGGSLRLSCAASGSIFAPYAMGWYRQAPGKERELVAAISSSGGSTYYADSVKGRFTISRDNAKNTLYLQMNSLKPEDTAVYYCAAETYHGLYDYWGQGTQVTVSS | low polyreactivity
3 | QVQLVESGGGLVQAGGSLRLSCAASGSIFAQYTMGWYRQAPGKERELVAVISINGVSTYYADSVKGRFTISRDNAKNTVYLQMNSLKPEDTAVYYCNAGISPYEALGYWGQGTQVTVSS | low polyreactivity
4 | QVQLVESGGGLVQAGGSLRLSCAASGSIFARNAMGWYRPAPGKERELVAVITTGGRTYYADSVKGRFTISRDNAKNTVYLQMNSLKPEDTAVYYCATRVIYGHSGGYWGQGTQVTVSS | high polyreactivity
5 | QVQLVESGGGLVQAGGSLRLSCAASGSIFARNAMGWYRQAPGKERELVAAITWGGGITYYADSVKGRFTISRDNAKNTVYLQMNSLKPEDTAVYYCATDGYSYFTDRLDYWGQGTQVTVSS | low polyreactivity
6 | QVQLVESGGGLVQAGGSLRLSCAASGSIFARNAMGWYRQAPGKERELVASITWSGASTYYADSVKGRFTISRDNAKNTVYLQMNSLKPADTSFYYSAATDQNLSLDYSSYEYRGQGTQVTVSS | low polyreactivity
7 | QVQLVESGGGLVQAGGSLRLSCAASGSIFARNAMGWYRQAPGKERELVASITWSGASTYYADSVKGRFTISRDNAKNTVYLQMNSLKPEDTAVYYCAATDQKLSLDYSSYEYWGQGTQVTVSS | low polyreactivity
8 | QVQLVESGGGLVQAGGSLRLSCAASGSIFARYAMGWDRQAPGKERELVAAISSRGGSTYYADSVKGRFTISRDNAKNTVYLQMNSLKPADTAVYYCNKGYLVRQGDYWGQGTQVTVSS | high polyreactivity
9 | QVQLVESGGGLVQAGGSLRLSCAASGSIFARYAMGWYRQAPGKERELVAAIDQSAGSTYYADSVKGRFTISRDNAKNTVYLQMNSLKPEDTAVYYCNADYWYWWVITYVGPGLGYWGQGTQVTVSS | high polyreactivity
10 | QVQLVESGGGLVQAGGSLRLSCAASGSIFARYAMGWYRQAPGKERELVAAISSNSASTYYADSVKGRFTISRDNAKNTVYLQMNSLKPEDTAVYYCATAYRSYWLTDYSGQGTQVTVSS | low polyreactivity
11 | QVQLVESGGGLVQAGGSLRLSCAASGSIFARYTMGGYRPAPGKASELVAAISTSGSRTYYADSVKGRFTISRDNAKKTVYLQRYSLKPEDTAVYFCAARNGGRYAPGLDYWGQGTQVTVSS | high polyreactivity
12 | QVQLVESGGGLVQAGGSLRLSCAASGSIFARYTMGWYRQAPGKERELVAAISSSGTSTYYADSVKGRFTISRDNAKNTVYLQMNSLKPEDTAVYYCAADWYYHYGYWGQGTQVTVSS | high polyreactivity
13 | QVQLVESGGGLVQAGGSLRLSCAASGSIFARYVMGWYRQAPGKERELVAAISRGGRTKYADSVKGRFTISRDNAKNTVYLQMNSLKPEDTAVYYCAAEPFNGRTDLDYWGQGTQVTVSS | high polyreactivity
14 | QVQLVESGGGLVQAGGSLRLSCAASGSIFASNAMGWYRQAPGKEREFVAAITWRTDRTYYADSVKGRFTISRDNAKNTVYLQMNSLKPEDNAVYYCAADTWFDRFYYWGQGTQVTVSS | high polyreactivity
15 | QVQLVESGGGLVQAGGSLRLSCAASGSIFASNAMGWYRQAPGKERELVAAINSGDSTNYADSVKGRFTISRDNAKNTVYFQMNSLKPEDTAVYYCARGLEERYDYWGQGTQVTVSS | low polyreactivity
16 | QVQLVESGGGLVQAGGSLRLSCAASGSIFASNAMGWYRQAPGKERELVAAINSGGNTYEDSVKGRFTISRDNAKNTVYLQMNSLKPEDTAVYYCSVVWNWWSGLSPGYPDFDYWGQGTQVTVSS | low polyreactivity
17 | QVQLVESGGGLVQAGGSLRLSCAASGSIFASNTMGWYRQAPGKERELVAGITKIGSSTYYADSVKGRFTISRDNAKNTVYLQMNSLKPEDTAVYYCAAGAWRGPYSGYYYWGQGTQVTVST | low polyreactivity
18 | QVQLVESGGGLVQAGGSLRLSCAASGSIFASYAMGWYRQPPGKERELVAAISIGGTTNYADSVKGRFTISRDNAKNTVYLQMYSLKPEDTAVYYCNAGRWLFNYYYWIYDVRYDYWGQGTQVTVSS | high polyreactivity
19 | QVQLVESGGGLVQAGGSLRLSCAASGSIFASYVMGWSRQAPGKERELVAAISYSDGRTYYADSVKGRFTISRDNAKNTVYLQMNSLKPEDTAVYYCAADRHARLVIGYRRLRYEYWGQGTQVTVSS | low polyreactivity
20 | QVQLVESGGGLVQAGGSLRLSCAASGSIFATNAMGCYRQAPGKERELVAAISRSGASTYYADSVKGRFTISRDNAKHTVYLQMNRLKPEDTAVYYCNKVLYRDAYQSYGFDYWGQGTQVTVSS | high polyreactivity
21 | QVQLVESGGGLVQAGGSLRLSCAASGSIFAVYAMGWYRQAPGKERELVAVITRSGGSTYYADSVKGRFTISRDNAKNTFYLQMNSLKPEDTAVYYCAARTGYGYTRYEYWGQGTQVTVSS | high polyreactivity

Row | Sequence | polyreactivity (PSR sort gate)
22 | QVQLVESGGGLVQAGGSLRLSCAASGSIFAVYAMRCYRQAPAKARELVATITGIDTGTYYADSVKGRCTISRDIAKNTVYLHMNILKPEDTAVYYCAAVCRYRHLRFYYWGQGTQGTVSS | high polyreactivity
23 | QVQLVESGGGLVQAGGSLRLSCAASGSIFAWYAMGWYRPAPGKERELVATITWSGGSTYYADSVKGRVTISRDNAKNTVYLQMNSLKPEDTAVYYCAAEVLGIWYDLWDQGDYGGQGTQVTVSS | low polyreactivity
24 | QVQLVESGGGLVQAGGSLRLSCAASGSIFAWYGMGWYRQAPGKERELVAAISTAGSTNYADSVKGRFTISRDNAKNTVYLQMNSLKPEDTAVYDCAKKSSWYYPERFDYWGQGTQVTVSS | low polyreactivity
25 | QVQLVESGGGLVQAGGSLRLSCAASGSIFAYNAMGWYRQAPGKEREFVAVITRSDDSTYADSVNGRFTISRDNAKNTVSLQMNSLKPEDTAVYYCAALQFVIDGGYRGDYWGQGTQVTVSS | low polyreactivity
26 | QVQLVESGGGLVQAGGSLRLSCAASGSIFAYNAMGWYRQAPGKERELVAAISVGGGRTYYADSVKGRFTISRDNAKNTVYLQMNSLKPEDTAVYYCAASSTAKRYYWGQGTQVTVSS | high polyreactivity
27 | QVQLVESGGGLVQAGGSLRLSCAASGSIFAYYAMGWYRQAPGKERELVAAITRGGRKYYADSVKGRFTISRDNAKNTVYLQMNILKPEYTAVYYCNARNVYFVSPNYDYWGQCTQVTVSS | high polyreactivity
28 | QVQLVESGGGLVQAGGSLRLSCAASGSIFAYYAMGWYRQAPGKERELVAAITWSGGITYYADSVKGRFTISRDNAKNTVYLQMNSLKPEDTAVYYCNADEWPPYEYEYWGQGTQVTVSS | low polyreactivity
29 | QVQLVESGGGLVQAGGSLRLSCAASGSIFCQYVMGWYRQAPGKERVLVAAISWSGPRTYYADSVKGRFTISRDNAKNTVDLQMNSLKPEDTAVYYCAARRLYAGHQYDYWGQGTQVTVSS | high polyreactivity
30 | QVQLVESGGGLVQAGGSLRLSCAASGSIFDAYAMGWYRQAPGKERELVAGITSGGSTNYADSVKGRFTISRDNAKNSVYLQMNSLKPEDTAVYYCAAQCDYANIYLIFNYWGQGTQVTVSS | low polyreactivity
31 | QVQLVESGGGLVQAGGSLRLSCAASGSIFDAYAMGWYRQSPGKERELVAAITTGGGSTYYADSVKGRFTISRDNAKNTVYLQMNSLKPEDTAVYYCAPDYGKYKGYYWGQGTQVTVSS | low polyreactivity
32 | QVQLVESGGGLVQAGGSLRLSCAASGSIFDDFAMGWYRQAPGKERELVAAISWSGGRTYYADSVKGRFTISRDNAKNTVYLHMNSLKPDDTAVYYCAATTGVRSRRYYYWGQGTQVTVSS | low polyreactivity
33 | QVQLVESGGGLVQAGGSLRLSCAASGSIFDDNAMGWYRQAPGKERELVAGISRGGSTNYADSVKGRFTISRDNANNTVYLQMNSLKPEDTAVYYCNKRYKPSWTTYDYWGQGTQVTVSS | low polyreactivity
34 | QVQLVESGGGLVQAGGSLRLSCAASGSIFDDNAMGWYRQAPGKEREMVAAISANDGSTYYADSVKGRFTISRDNAKNTVYLQRNSLNPEDTAVYYCAADVKDYAAQMDSWGQGTQVTVSS | low polyreactivity
35 | QVQLVESGGGLVQAGGSLRLSCAASGSIFDDYAMGWYRQAPGKEREKVAAISWSGGRTYYADSVKGRFTISRDTAKNTVYLQMNSLKPEDTAVYYCAATTGVRSRRYYYWGQGTQVTVSS | high polyreactivity
36 | QVQLVESGGGLVQAGGSLRLSCAASGSIFDDYAMGWYRQAPGKERELVAAISSSGTSTYYADSVKGRFTISRDNAKNTVYLQMNSLKPEDTAGYYCAARSAILKSGYLMDYWGQGTQVTVSS | low polyreactivity
37 | QVQLVESGGGLVQAGGSLRLSCAASGSIFDDYAMGWYRQAPGKERELVAAISWSGGSTYYADSVKGRFTISRDNAKNTVYLQINSLKPEDTAVYYCAKESGWVGAIHYDYWGQGTQVTVSS | low polyreactivity
38 | QVQLVESGGGLVQAGGSLRLSCAASGSIFDDYAMGWYRQAPGKESELVAAITSGASTNYADSVKGRFTISRDNAKNTFSLQMNSLKPEDTAVYYCAADHDYFVNTDKFDDYWGQGTQVTVSS | low polyreactivity
39 | QVQLVESGGGLVQAGGSLRLSCAASGSIFDDYAMGWYRQATGKERQLVAAISSSGTSTYYADSVKGRFTISRDNAKNTVYLQMNSLKPEDTAVYYCAARSAILKSGYLMDYWGQGTQVTVSS | low polyreactivity
40 | QVQLVESGGGLVQAGGSLRLSCAASGSIFDFYAMGWDRQAPGKERELVAAISGSGGSTYYADSVKGRFTISRDNAKNTVYLQMNSLKPEDTAVYYCNAATYRTRHSNNGYWGQGTQVTVSS | low polyreactivity
41 | QVQLVESGGGLVQAGGSLRLSCAASGSIFDFYAMGWYRQAPGKERELVAAIDDIDDSTYYADSVKGRFTISRDNAKNTVYLQMNCLNPEDTAVYYCAAELRPGYRSSYGLIYDYWGQGTQVTVSS | low polyreactivity
